This series relates to HPPD polypeptides. The experiment in a line: coupled HPPD activity assay: turnover and residual turnover in crude extracts. The series is classed as biochemical, Pseudomonas fluorescens. As to conditions: for Residual turnover [%]: 100 μM Cmpd. 1, signal change with inhibitor divided by signal change without inhibitor; for Turnover: absence of Cmpd. 1, kinetic changes in absorbance (OD) at 320 nm, 30 min; for Turnover / Residual turnover: high substrate concentration; for Residual turnover: presence of 100 μM Cmpd. 1, changes in absorbance (OD) at 320 nm.

B1: 28 (protein)
chain: MADLYENPMGLMGFEFIEFASPTPGTLEPIFEIMGFTKVATHRSKNVHLYRQGEINLILNNEPNSIASYFAAEHGPSVCGMAFRVKDSQKAYNRALELGAQPIHIDTGPMELNLPAIKGIGGAPLYLIDRFGEGSSIYDIDFVYLEGVERNPVGAGLKVIDHLTHNVYRGRMVYWANFYEKLFNFREARYFDIKGEYTGLTSKAMSAPDGMIRIPLNEESSKGAGQIEEFLMQFNGEGIQHVAFLTDDLVKTWDALKKIGMRFMTAPGDNYYEMLEGRLPDHGEPVDQLQARGILLDGSSVEGDKRLLLQIFSETLMGPVFFEFIQRKGDDGFGPHSFKVLFESIERDQVRRGVLTAD
modifications: mutant HPPD polypeptide
Turning to B1, the “Residual turnover [%]” value is 43%, the Turnover turned out to be 0.204 and the Residual turnover was found to be 0.088.

B2: 32 (protein)
chain: MADLYENPMGLMGFEFIEFASPTPGTLEPIFEIMGFTKVATHRSKNVHLYRQGEINLILNNEPNSIASYFAAEHGPSVCGMAFRVKDSQKAYNRALELGAQPIHIDTGPMELNLPAIKGIGGAPLYLIDRFGEGSSIYDIDFVYLEGVERNPVGAGLKVIDHLTHNVYRGRMVYWANFYEKLFNFREARYFDIKGEYTGLTSKAMSAPDGMIRIPLNEESSKGAGQIEEFLMQFNGEGIQHVAFLTDDLVKTWDALKKIGMRFMTAPPDTYYEMLEGRLPDHGEPVDQLQARGILLDGSSVEGDKRLLLQIFSETLMGPVFFEFIQRKGDDGFGPHSFKVLFESVERDQVRRGVLTAD
modifications: mutant HPPD polypeptide
Turning to B2, the “Residual turnover [%]” value is 39%, the Turnover was determined as 0.326 and the Residual turnover was determined as 0.128.

B3: 30 (protein)
chain: MADLYENPMGLMGFEFIEFASPTPGTLEPIFEIMGFTKVATHRSKNVHLYRQGEINLILNNEPNSIASYFAAEHGPSVCGMAFRVKDSQKAYNRALELGAQPIHIDTGPMELNLPAIKGIGGAPLYLIDRFGEGSSIYDIDFVYLEGVERNPVGAGLKVIDHLTHNVYRGRMVYWANFYEKLFNFREARYFDIKGEYTGLTSKAMSAPDGMIRIPLNEESSKGAGQIEEFLMQFNGEGIQHVAFLTDDLVKTWDALKKIGMRFMTAPADTYYEMLEGRLPDHGEPVDQLQARGILLDGSSVEGDKRLLLQIFSETLMGPVFFEFIQRKGDDGFGPHSFKVLFESVERDQVRRGVLTAD
modifications: mutant HPPD polypeptide
With B3, the “Residual turnover [%]” value is 48%, the Turnover was 0.311 and the Residual turnover was determined as 0.149.

B4: 31 (protein)
chain: MADLYENPMGLMGFEFIEFASPTPGTLEPIFEIMGFTKVATHRSKNVHLYRQGEINLILNNEPNSIASYFAAEHGPSVCGMAFRVKDSQKAYNRALELGAQPIHIDTGPMELNLPAIKGIGGAPLYLIDRFGEGSSIYDIDFVYLEGVERNPVGAGLKVIDHLTHNVYRGRMVYWANFYEKLFNFREARYFDIKGEYTGLTSKAMSAPDGMIRIPLNEESSKGAGQIEEFLMQFNGEGIQHVAFLTDDLVKTWDALKKIGMRFMTAPGDTYYEMLEGRLPDHGEPVDQLQARGILLDGSSVEGDKRLLLQIFSETLMGPVFFEFIQRKGDDGFGPHSFKVLFESVERDQVRRGVLTAD
modifications: mutant HPPD polypeptide
In the case of B4, the “Residual turnover [%]” value is recorded as 37%, the Turnover is listed as 0.268 and the Residual turnover came to 0.098.

B5: 35 (protein)
chain: MADLYENPMGLMGFEFIEFASPTPGTLEPIFEIMGFTKVATHRSKNVHLYRQGEINLILNNEPNSIASYFAAEHGPSVCGMAFRVKDSQKAYNRALELGAQPIHIDTGPMELNLPAIKGIGGAPLYLIDRFGEGSSIYDIDFVYLEGVERNPVGAGLKVIDHLTHNVYRGRMVYWANFYEKLFNFREARYFDIKGEYTGLTSKAMSAPDGMIRIPLNEESSKGAGQIEEFLMQFNGEGIQHVAFLTDDLVKTWDALKKIGMRFMTAPPDNYYEMLEGRLPDHGEPVDQLQARGILLDGSSVEGDKRLLLQIFSETLMGPVFFEFIQRKGDDGFGPHSFKVLFESVERDQVRRGVLTAD
modifications: mutant HPPD polypeptide
In the case of B5, the Turnover stood at 0.036 and the Residual turnover worked out at 0.023.

B6: 36 (protein)
chain: MADLYENPMGLMGFEFIEFASPTPGTLEPIFEIMGFTKVATHRSKNVHLYRQGEINLILNNEPNSIASYFAAEHGPSVCGMAFRVKDSQKAYNRALELGAQPIHIDTGPMELNLPAIKGIGGAPLYLIDRFGEGSSIYDIDFVYLEGVERNPVGAGLKVIDHLTHNVYRGRMVYWANFYEKLFNFREARYFDIKGEYTGLTSKAMSAPDGMIRIPLNEESSKGAGQIEEFLMQFNGEGIQHVAFLTDDLVKTWDALKKIGMRFMTAPRDNYYEMLEGRLPDHGEPVDQLQARGILLDGSSVEGDKRLLLQIFSETLMGPVFFEFIQRKGDDGFGPHSFKVLFESVERDQVRRGVLTAD
modifications: mutant HPPD polypeptide
In the case of B6, the “Residual turnover [%]” value amounted to 61%, the Turnover came out at 0.108 and the Residual turnover was 0.066.

B7: 29 (protein)
chain: MADLYENPMGLMGFEFIEFASPTPGTLEPIFEIMGFTKVATHRSKNVHLYRQGEINLILNNEPNSIASYFAAEHGPSVCGMAFRVKDSQKAYNRALELGAQPIHIDTGPMELNLPAIKGIGGAPLYLIDRFGEGSSIYDIDFVYLEGVERNPVGAGLKVIDHLTHNVYRGRMVYWANFYEKLFNFREARYFDIKGEYTGLTSKAMSAPDGMIRIPLNEESSKGAGQIEEFLMQFNGEGIQHVAFLTDDLVKTWDALKKIGMRFMTAPPDNYYEMLEGRLPDHGEPVDQLQARGILLDGSSVEGDKRLLLQIFSETLMGPVFFEFIQRKGDDGFGPHSFKVLFESIERDQVRRGVLTAD
modifications: mutant HPPD polypeptide
Take B7: the “Residual turnover [%]” value was determined as 29%, the Turnover was 0.289 and the Residual turnover was 0.084.

B8: 34 (protein)
chain: MADLYENPMGLMGFEFIEFASPTPGTLEPIFEIMGFTKVATHRSKNVHLYRQGEINLILNNEPNSIASYFAAEHGPSVCGMAFRVKDSQKAYNRALELGAQPIHIDTGPMELNLPAIKGIGGAPLYLIDRFGEGSSIYDIDFVYLEGVERNPVGAGLKVIDHLTHNVYRGRMVYWANFYEKLFNFREARYFDIKGEYTGLTSKAMSAPDGMIRIPLNEESSKGAGQIEEFLMQFNGEGIQHVAFLTDDLVKTWDALKKIGMRFMTAPGDNYYEMLEGRLPDHGEPVDQLQARGILLDGSSVEGDKRLLLQIFSETLMGPVFFEFIQRKGDDGFGPHSFKVLFESVERDQVRRGVLTAD
modifications: mutant HPPD polypeptide
In the case of B8, the “Residual turnover [%]” value is given as 47%, the Turnover came to 0.243 and the Residual turnover was 0.113.

B9: 33 (protein)
chain: MADLYENPMGLMGFEFIEFASPTPGTLEPIFEIMGFTKVATHRSKNVHLYRQGEINLILNNEPNSIASYFAAEHGPSVCGMAFRVKDSQKAYNRALELGAQPIHIDTGPMELNLPAIKGIGGAPLYLIDRFGEGSSIYDIDFVYLEGVERNPVGAGLKVIDHLTHNVYRGRMVYWANFYEKLFNFREARYFDIKGEYTGLTSKAMSAPDGMIRIPLNEESSKGAGQIEEFLMQFNGEGIQHVAFLTDDLVKTWDALKKIGMRFMTAPADNYYEMLEGRLPDHGEPVDQLQARGILLDGSSVEGDKRLLLQIFSETLMGPVFFEFIQRKGDDGFGPHSFKVLFESVERDQVRRGVLTAD
modifications: mutant HPPD polypeptide
Regarding B9, the “Residual turnover [%]” value worked out at 46%, the Turnover was found to be 0.189 and the Residual turnover worked out at 0.087.

Values taken from patent US11180770B2, “HPPD variants and methods of use” (BASF Agricultural Solutions Seed US LLC, priority 2017, dated 2021).
